In one experiment the target is Cathepsin V. Nature of the experiment: cell-based or functional assay.
For experiment [1], the target named is T1, Cathepsin L (Homo sapiens (Human), UniProt P07711 114-333). Nature of the experiment: cell-based or functional assay.
The target in another experiment is Cathepsin S. In words: cell-based or functional assay.
A further experiment deals with Cathepsin X/Z/P (Homo sapiens (Human), UniProt Q9UBR2 62-303). Nature of the experiment: cell-based or functional assay.
Sequence of Cathepsin X/Z/P (Q9UBR2 62-303 limits assumed, form in doubt): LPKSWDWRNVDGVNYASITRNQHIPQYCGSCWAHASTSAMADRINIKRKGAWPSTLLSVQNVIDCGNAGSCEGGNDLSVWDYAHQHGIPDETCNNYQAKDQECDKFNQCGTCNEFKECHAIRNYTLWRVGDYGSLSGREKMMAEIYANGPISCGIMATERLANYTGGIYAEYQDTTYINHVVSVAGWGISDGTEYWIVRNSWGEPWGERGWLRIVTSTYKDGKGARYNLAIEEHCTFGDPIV
The target in another experiment is Cathepsin C. In words: cell-based or functional assay.
Experiment [2] has as its target T1, Cathepsin L. In words: enzyme kinetics for tight binding inhibition: Morrison's equation, Ki* plotted against substrate concentration, y intercept of the linear regression.

T1 sequence (P07711 114-333 limits assumed, form in doubt): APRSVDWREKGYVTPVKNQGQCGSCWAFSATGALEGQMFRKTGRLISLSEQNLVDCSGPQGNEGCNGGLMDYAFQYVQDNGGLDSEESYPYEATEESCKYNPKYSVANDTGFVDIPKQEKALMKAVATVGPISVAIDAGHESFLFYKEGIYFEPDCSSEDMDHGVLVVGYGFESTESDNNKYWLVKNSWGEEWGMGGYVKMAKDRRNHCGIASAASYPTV

B1: Sialostatin L (other)
chain: MTGVFGGYSERANHQANPEFLNLAHYATSTWSAQQPGKTHFDTVAEVVKVETQVVAGTNYRLTLKVAESTCELTSTYNKDTCLPKADAAHRTCTTVVFENLQGDKSVSPFECEAA
Turning to B1, the “IC50 (inhibitor concentration at which 50% inhibition of enzymatic activity is achieved); 1 nM enzyme” value with Cathepsin V came out at 24.1 nM. For the same molecule, the “IC50 (inhibitor concentration at which 50% inhibition of enzymatic activity is achieved); 20 pM enzyme” value in the experiment with Cathepsin L [1] was 126 pM. In addition, the “IC50 (inhibitor concentration at which 50% inhibition of enzymatic activity is achieved); 60 pM enzyme” value with Cathepsin S is 0.7 nM. In addition, the “IC50 (inhibitor concentration at which 50% inhibition of enzymatic activity is achieved); 16 nM enzyme” value in the experiment with Cathepsin X/Z/P stood at 937 nM. In the experiment with Cathepsin C, the “IC50 (inhibitor concentration at which 50% inhibition of enzymatic activity is achieved); 10 nM enzyme” value amounted to 52.2 nM.

B2: Sialostatin L2 (other)
chain: MELALRGGYRERSNQDDPEYLELAHYATSTWSAQQPGKTHFDTVVEVLKVETQTVAGTNYRLTLKVAESTCELTSTYNKDTCQANANAAQRTCTTVIYRNLQGEKSISSFECAAA
notes: Recombinant protein overexpressed in bacteria; also called second salivary cystatin; novel cystatin
As for B2, in the experiment with Cathepsin L [2], the affinity corresponds to a Ki of 0.0655 nM. Further, the “IC50 (inhibitor concentration at which 50% inhibition of enzymatic activity is achieved); 1 nM enzyme” value in the experiment with Cathepsin V was 28.8 nM. In addition, in the experiment with Cathepsin L [1], the “IC50 (inhibitor concentration at which 50% inhibition of enzymatic activity is achieved); 20 pM enzyme” value amounted to 70.9 pM. Further, the “IC50 (inhibitor concentration at which 50% inhibition of enzymatic activity is achieved); 60 pM enzyme” value in the experiment with Cathepsin S was 378 nM. For the same molecule, the “IC50 (inhibitor concentration at which 50% inhibition of enzymatic activity is achieved); 10 nM enzyme” value in the experiment with Cathepsin C was 740 nM.

The term Ki denotes a measure of affinity in units of concentration, obtained from inhibition or displacement.

These data come from patent US20100278752A1 (RHODE ISLAND BOARD OF GOVERNORS FOR HIGHER EDUCATION, published 2010).
